Experimental findings from paper PMC1557793 are described below.

Series [1] addresses E1 helicase domain of bovine papillomavirus type-1 (BPV-1) E1 (bovine papillomavirus type-1 (BPV-1)). As to the kind of experiment: SEC.
The target is the same in series [2]. Put plainly: SEC + other: glycerol gradient sedimentation.
Series [3] concerns the target T1, E1HD (E1 helicase domain) (bovine papillomavirus type 1 (BPV-1), UniProt P03116 299-605). As to the kind of experiment: EMSA.
In series [4] the target is T1, E1HD (E1 helicase domain). Put plainly: EMSA. The source holds these as a separate data set. On the technique in general: Mobility shift assays separate free from complexed probe on a gel.
For series [5], the target named is T1, E1HD (E1 helicase domain). As to the kind of experiment: EMSA. The source holds these as a separate data set.
The target in series [6] is T1, E1HD (E1 helicase domain). As to the kind of experiment: gel filtration. (In general: In gel filtration, larger molecules generally elute earlier.)
Series [7] deals with T1, E1HD (E1 helicase domain). As to the kind of experiment: EMSA. This is another data set of the same source.
Series [8] has as its target T1, E1HD (E1 helicase domain). As to the kind of experiment: EMSA. This is another data set of the same source.

Where two headings read alike, the source gives them in different places.

T1 sequence (P03116 299-605): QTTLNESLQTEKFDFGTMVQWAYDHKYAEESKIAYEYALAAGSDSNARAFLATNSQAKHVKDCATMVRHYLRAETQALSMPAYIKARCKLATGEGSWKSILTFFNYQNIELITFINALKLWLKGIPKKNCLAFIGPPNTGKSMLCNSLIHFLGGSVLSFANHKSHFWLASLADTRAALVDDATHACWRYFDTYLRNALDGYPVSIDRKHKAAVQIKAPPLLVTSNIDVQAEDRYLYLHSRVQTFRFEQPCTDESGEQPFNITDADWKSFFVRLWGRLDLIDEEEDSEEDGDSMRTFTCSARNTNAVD

Turning to “E1 helicase domain of bovine papillomavirus type-1 (BPV-1) E1 (domain or fragment)”, in series [1], the percent of protein oligomeric was 40%. Further, the stoichiometry N in series [1] and in series [2] was 6 each time.

B1: T30 (ssDNA)
DNA: TTTTTTTTTTTTTTTTTTTTTTTTTTTTTT
Consider B1, for which the dissociation constant Kd turned out to be 0.297 ± 0.007 µM in series [3] and 1.83 ± 0.29 µM in series [4].

B2: T6 (ssDNA)
DNA: TTTTTT
Consider B2, for which the binding result in series [5] was “no binding”.

B3: T18 (ssDNA)
DNA: TTTTTTTTTTTTTTTTTT
For B3, the binding result in series [6] is on record as “binds”.

B4: T20 (ssDNA)
DNA: TTTTTTTTTTTTTTTTTTTT
B4: the binding result in series [7] is “binds”.

B5: T42 (ssDNA)
DNA: TTTTTTTTTTTTTTTTTTTTTTTTTTTTTTTTTTTTTTTTTT
Consider B5, for which, in series [8], the binding result is “binds”.

B6: T16 (ssDNA)
DNA: TTTTTTTTTTTTTTTT
As to B6, the binding result in series [7] was “binds”.

One may read the stoichiometry N as the number of molecules, sites or subunits per partner or assembly. For orientation: Kd means the equilibrium constant for the complex coming apart. A low value points to tighter binding.
